For this data set, the target named is SKIV2L (hSKI complex subunit);TTC37 (hSKI complex subunit);WDR61 (hSKI complex subunit) (human;human;human, UniProt Q15477;Q6PGP7;Q9GZS3 1-1246;1-1564;1-305, ||). Nature of the data set: EMSA; 2 mM Mg2+; 25 mM Hepes-KOH pH 7.6, 2 mM Mg acetate, 50 mM NaCl, 1 mM DTT, 0.1 mg/ml BSA, 1 nM substrate, 37 C 30 min; 0.7% agarose gel at 4 C. On the technique in general: In EMSA bound probe runs differently from free probe, usually more slowly.

As to CCCCACCACCATCACTTAAAAAAAAAA (ssDNA) [ss poly(A) DNA], the binding result is on record as “binds”.
Usually Kd stands for a measure of binding affinity in units of concentration. As to AGCGTATCCGTTCAGTTG (ssDNA) [Non-TEL18], the Kd was 30 nM.
Consider CCCCACCACCAUCACUUAAAAAAAAAA (ssRNA) [ss poly(A)], for which the binding result is given as “binds”.
In the case of GGTTAGGGTTAGGGTTAG (ssDNA) [TEL18], binding was put at a Kd of 12 nM.

B1: dsRNA (ss poly(A) + Css27) (dsRNA)
RNA 1: CCCCACCACCAUCACUUAAAAAAAAAA
RNA 2: UUUUUUUUUUAAGUGAUGGUGGUGGGG
For the molecule B1, the binding result is reported as “no binding”.
